Our source for the hemagglutination unit (HAU), co-expression with H5-S-Tag in plants in vivo and hemagglutination unit (HAU), combination with H5-S-Tag in vitro values is patent US20200181633A1.

For the test, the target named is trimerized [change]-Tag (A/duck/Viet Nam/TG24-01/2005 (H5N1)). Nature of the test: cell-based or functional assay.

In the case of “wild type S-Protein (from UniProt P61823 47-150)”, the hemagglutination unit (HAU), co-expression with H5-S-Tag in plants in vivo came out at 4 HAU and the hemagglutination unit (HAU), combination with H5-S-Tag in vitro was determined as 0 HAU.

As to S-Protein-GCN4 (reference 2), the hemagglutination unit (HAU), co-expression with H5-S-Tag in plants in vivo is 2 HAU and the hemagglutination unit (HAU), combination with H5-S-Tag in vitro came out at 0 HAU.

Regarding S-Protein-pII (reference 1), the hemagglutination unit (HAU), co-expression with H5-S-Tag in plants in vivo was determined as 0 HAU and the hemagglutination unit (HAU), combination with H5-S-Tag in vitro came out at 0 HAU.
